Assay results taken from the supplement of paper PMC12458215.
± gives the uncertainty stated by the source.

Tested on: HEK293T
Experiment: plasma membrane surface immunostaining intensity (anti-HA, deep receptor scanning) (arbitrary fluorescence units); higher = higher plasma membrane expression

MPIMGSSVYITVELAIAVLAILGNVLVCWAVWLNSNLQNVTNYFVVSLAAADIAVGVLAIPFAITISTGFCAACHGCLFIACFVLVLTQSSIFSLLAIAIDRYIAIRIPLRYNGLVTGTRAKGIIAICWVLSFAIGLTPMLGWNNCGQPKEGKNHSQGCGEGQVACLFEDVVPMNYMVYFNFFACVLVPLLLMLGVYLRIFLAARRQLKQMESQPLPGERARSTLQKEVHAAKSLAIIVGLFALCWLPLHIINCFTFFCPDCSHAPLWLMYLAIVLSHTNSVVNPFIYAYRIREFRQTFRKIIRSHVLRQQEPFKAAGTSARVLAAHGSDGEQVSLRLNGHPPGVWANGSAPHPERRPNGYALGLVSGGSAQESQGNTGLPDVELLSHELKGVCPEPPGLDDPLAQDGAGVS [ADORA2A]
plasma membrane surface immunostaining intensity (GPCR class: A): 5780 ± 120

MPKLNSTFVTEFLFEGFSSFRRQHKLVFFVVFLTLYLLTLSGNVIIMTIIRLDHHLHTPMYFFLCMLSISETCYTVAIIPHMLSGLLNPHQPIATQSCATQLFFYLTFGINNCFLLTVMGYDRYVAICNPLRYSVIMGKRACIQLASGSLGIGLGMAIVQVTSVFGLPFCDAFVISHFFCDVRHLLKLACTDTTVNEIINFVVSVCVLVLPMGLVFISYVLIISTILKIASAEGQKKAFATCASHLTVVIIHYGCASIIYLKPKSQSSLGQDRLISVTYTHHSPTEPCCVQPEEQGGQRCSAQSRGAKNSVSLMKRGCEGFSFAFINMY [OR10J3]
plasma membrane surface immunostaining intensity (GPCR class: A (Olfactory)): 164 ± 60

MPNFTDVTEFTLLGLTCRQELQVLFFVVFLAVYMITLLGNIGMIILISISPQLQSPMYFFLSHLSFADVCFSSNVTPKMLENLLSETKTISYVGCLVQCYFFIAVVHVEVYILAVMAFDRYMAGCNPLLYGSKMSRTVCVRLISVPYVYGFSVSLICTLWTYGLYFCGNFEINHFYCADPPLIQIACGRVHIKEITMIVIAGINFTYSLSVVLISYTLIVVAVLRMRSADGRRKAFSTCGSHLTAVSMFYGTPIFMYLRRPTEESVEQGKMVAVFYTTVIPMLNPMIYSLRNKDVKEAVNKAITKTYVRQ [OR5M9]
plasma membrane surface immunostaining intensity (GPCR class: A (Olfactory)): 133 ± 54

MPNNSTALSLANVTYITMEIFIGLCAIVGNVLVICVVKLNPSLQTTTFYFIVSLALADIAVGVLVMPLAIVVSLGITIHFYSCLFMTCLLLIFTHASIMSLLAIAVDRYLRVKLTVRYKRVTTHRRIWLALGLCWLVSFLVGLTPMFGWNMKLTSEYHRNVTFLSCQFVSVMRMDYMVYFSFLTWIFIPLVVMCAIYLDIFYIIRNKLSLNLSNSKETGAFYGREFKTAKSLFLVLFLFALSWLPLSIINCIIYFNGEVPQLVLYMGILLSHANSMMNPIVYAYKIKKFKETYLLILKACVVCHPSDSLDTSIEKNSE [ADORA3]
plasma membrane surface immunostaining intensity (GPCR class: A): 5830 ± 110

MPNSTTVMEFLLMRFSDVWTLQILHSASFFMLYLVTLMGNILIVTVTTCDSSLHMPMYFFLRNLSILDACYISVTVPTSCVNSLLDSTTISKAGCVAQVFLVVFFVYVELLFLTIMAHDRYVAVCQPLHYPVIVNSRICIQMTLASLLSGLVYAGMHTGSTFQLPFCRSNVIHQFFCDIPSLLKLSCSDTFSNEVMIVVSALGVGGGCFIFIIRSYIHIFSTVLGFPRGADRTKAFSTCIPHILVVSVFLSSCSSVYLRPPAIPAATQDLILSGFYSIMPPLFNPIIYSLRNKQIKVAIKKIMKRIFYSENV [OR14C36]
plasma membrane surface immunostaining intensity (GPCR class: A (Olfactory)): 264 ± 80

MPPSISAFQAAYIGIEVLIALVSVPGNVLVIWAVKVNQALRDATFCFIVSLAVADVAVGALVIPLAILINIGPQTYFHTCLMVACPVLILTQSSILALLAIAVDRYLRVKIPLRYKMVVTPRRAAVAIAGCWILSFVVGLTPMFGWNNLSAVERAWAANGSMGEPVIKCEFEKVISMEYMVYFNFFVWVLPPLLLMVLIYLEVFYLIRKQLNKKVSASSGDPQKYYGKELKIAKSLALILFLFALSWLPLHILNCITLFCPSCHKPSILTYIAIFLTHGNSAMNPIVYAFRIQKFRVTFLKIWNDHFRCQPAPPIDEDLPEERPDD [ADORA1]
plasma membrane surface immunostaining intensity (GPCR class: A): 6412 ± 62

MPSKSLSNLSVTTGANESGSVPEGWERDFLPASDGTTTELVIRCVIPSLYLLIITVGLLGNIMLVKIFITNSAMRSVPNIFISNLAAGDLLLLLTCVPVDASRYFFDEWMFGKVGCKLIPVIQLTSVGVSVFTLTALSADRYRAIVNPMDMQTSGALLRTCVKAMGIWVVSVLLAVPEAVFSEVARISSLDNSSFTACIPYPQTDELHPKIHSVLIFLVYFLIPLAIISIYYYHIAKTLIKSAHNLPGEYNEHTKKQMETRKRLAKIVLVFVGCFIFCWFPNHILYMYRSFNYNEIDPSLGHMIVTLVARVLSFGNSCVNPFALYLLSESFRRHFNSQLCCGRKSYQERGTSYLLSSSAVRMTSLKSNAKNMVTNSVLLNGHSMKQEMAL [NMBR]
plasma membrane surface immunostaining intensity (GPCR class: A): 2430 ± 1200

MPSPPGLRALWLCAALCASRRAGGAPQPGPGPTACPAPCHCQEDGIMLSADCSELGLSAVPGDLDPLTAYLDLSMNNLTELQPGLFHHLRFLEELRLSGNHLSHIPGQAFSGLYSLKILMLQNNQLGGIPAEALWELPSLQSLRLDANLISLVPERSFEGLSSLRHLWLDDNALTEIPVRALNNLPALQAMTLALNRISHIPDYAFQNLTSLVVLHLHNNRIQHLGTHSFEGLHNLETLDLNYNKLQEFPVAIRTLGRLQELGFHNNNIKAIPEKAFMGNPLLQTIHFYDNPIQFVGRSAFQYLPKLHTLSLNGAMDIQEFPDLKGTTSLEILTLTRAGIRLLPSGMCQQLPRLRVLELSHNQIEELPSLHRCQKLEEIGLQHNRIWEIGADTFSQLSSLQALDLSWNAIRSIHPEAFSTLHSLVKLDLTDNQLTTLPLAGLGGLMHLKLKGNLALSQAFSKDSFPKLRILEVPYAYQCCPYGMCASFFKASGQWEAEDLHLDDEESSKRPLGLLARQAENHYDQDLDELQLEMEDSKPHPSVQCSPTPGPFKPCEYLFESWGIRLAVWAIVLLSVLCNGLVLLTVFAGGPVPLPPVKFVVGAIAGANTLTGISCGLLASVDALTFGQFSEYGARWETGLGCRATGFLAVLGSEASVLLLTLAAVQCSVSVSCVRAYGKSPSLGSVRAGVLGCLALAGLAAALPLASVGEYGASPLCLPYAPPEGQPAALGFTVALVMMNSFCFLVVAGAYIKLYCDLPRGDFEAVWDCAMVRHVAWLIFADGLLYCPVAFLSFASMLGLFPVTPEAVKSVLLVVLPLPACLNPLLYLLFNPHFRDDLRRLRPRAGDSGPLAYAAAGELEKSSCDSTQALVAFSDVDLILEASEAGRPPGLETYGFPSVTLISCQQPGAPRLEGSHCVEPEGNHFGNPQPSMDGELLLRAEGSTPAGGGLSGGGGFQPSGLAFASHV [LGR6]
plasma membrane surface immunostaining intensity (GPCR class: A): 479 ± 50

MPVGKLVFNQSEPTEFVFRAFTTATEFQVLLFLLFLLLYLMILCGNTAIIWVVCTHSTLRTPMYFFLSNLSFLELCYTTVVVPLMLSNILGAQKPISLAGCGAQMFFFVTLGSTDCFLLAIMAYDRYVAICHPLHYTLIMTRELCTQMLGGALGLALFPSLQLTALIFTLPFCGHHQEINHFLCDVPPVLRLACADIRVHQAVLYVVSILVLTIPFLLICVSYVFITCAILSIRSAEGRRRAFSTCSFHLTVVLLQYGCCSLVYLRPRSSTSEDEDSQIALVYTFVTPLLNPLLYSLRNKDVKGALRSAIIRKAASDAN [OR10Q1]
plasma membrane surface immunostaining intensity (GPCR class: A (Olfactory)): 243 ± 67

MQAALTAFFVLLFSLLSLLGIAANGFIVLVLGREWLRYGRLLPLDMILISLGASRFCLQLVGTVHNFYYSAQKVEYSGGLGRQFFHLHWHFLNSATFWFCSWLSVLFCVKIANITHSTFLWLKWRFPGWVPWLLLGSVLISFIITLLFFWVNYPVYQEFLIRKFSGNMTYKWNTRIETYYFPSLKLVIWSIPFSVFLVSIMLLINSLRRHTQRMQHNGHSLQDPSTQAHTRALKSLISFLILYALSFLSLIIDAAKFISMQNDFYWPWQIAVYLCISVHPFILIFSNLKLRSVFSQLLLLARGFWVA [TAS2R41]
plasma membrane surface immunostaining intensity (GPCR class: Taste): 129 ± 20

MQALNITPEQFSRLLRDHNLTREQFIALYRLRPLVYTPELPGRAKLALVLTGVLIFALALFGNALVFYVVTRSKAMRTVTNIFICSLALSDLLITFFCIPVTMLQNISDNWLGGAFICKMVPFVQSTAVVTEILTMTCIAVERHQGLVHPFKMKWQYTNRRAFTMLGVVWLVAVIVGSPMWHVQQLEIKYDFLYEKEHICCLEEWTSPVHQKIYTTFILVILFLLPLMVMLILYSKIGYELWIKKRVGDGSVLRTIHGKEMSKIARKKKRAVIMMVTVVALFAVCWAPFHVVHMMIEYSNFEKEYDDVTIKMIFAIVQIIGFSNSICNPIVYAFMNENFKKNVLSAVCYCIVNKTFSPAQRHGNSGITMMRKKAKFSLRENPVEETKGEAFSDGNIEVKLCEQTEEKKKLKRHLALFRSELAENSPLDSGH [QRFPR]
plasma membrane surface immunostaining intensity (GPCR class: A): 392 ± 31
